Biological target: MDM2 SWIB domain, Danio rerio (Danio rerio)
Test: fluorescence polarisation

Substance | Kd [nM] | fold higher affinity than p53TAD (D.rerio)^15-27 [fold] | fold reduced affinity against p53TAD (D.rerio)^17-32 [fold]
p53TAD_(D.rerio)^10-75 (domain or fragment) | 49 | > 70 | 
alternative p53TAD_(D.rerio)^17-32 (P79734), ending with IIQPP (peptide) | 580 |  | 
p53TAD_(D.rerio)^17-32 triple Ala mutant (AAAQP) (peptide) |  |  | 7.7
p53TAD_(D.rerio)^12-55 (domain or fragment) | 180 |  | 
